Source: article PMC2854379

Target: CDK5RAP2 (human (endogenous in HeLa)) (UniProt Q96SN8)
Assay: co-IP

Sequence of UniProt Q96SN8 (Q96SN8 whole entry): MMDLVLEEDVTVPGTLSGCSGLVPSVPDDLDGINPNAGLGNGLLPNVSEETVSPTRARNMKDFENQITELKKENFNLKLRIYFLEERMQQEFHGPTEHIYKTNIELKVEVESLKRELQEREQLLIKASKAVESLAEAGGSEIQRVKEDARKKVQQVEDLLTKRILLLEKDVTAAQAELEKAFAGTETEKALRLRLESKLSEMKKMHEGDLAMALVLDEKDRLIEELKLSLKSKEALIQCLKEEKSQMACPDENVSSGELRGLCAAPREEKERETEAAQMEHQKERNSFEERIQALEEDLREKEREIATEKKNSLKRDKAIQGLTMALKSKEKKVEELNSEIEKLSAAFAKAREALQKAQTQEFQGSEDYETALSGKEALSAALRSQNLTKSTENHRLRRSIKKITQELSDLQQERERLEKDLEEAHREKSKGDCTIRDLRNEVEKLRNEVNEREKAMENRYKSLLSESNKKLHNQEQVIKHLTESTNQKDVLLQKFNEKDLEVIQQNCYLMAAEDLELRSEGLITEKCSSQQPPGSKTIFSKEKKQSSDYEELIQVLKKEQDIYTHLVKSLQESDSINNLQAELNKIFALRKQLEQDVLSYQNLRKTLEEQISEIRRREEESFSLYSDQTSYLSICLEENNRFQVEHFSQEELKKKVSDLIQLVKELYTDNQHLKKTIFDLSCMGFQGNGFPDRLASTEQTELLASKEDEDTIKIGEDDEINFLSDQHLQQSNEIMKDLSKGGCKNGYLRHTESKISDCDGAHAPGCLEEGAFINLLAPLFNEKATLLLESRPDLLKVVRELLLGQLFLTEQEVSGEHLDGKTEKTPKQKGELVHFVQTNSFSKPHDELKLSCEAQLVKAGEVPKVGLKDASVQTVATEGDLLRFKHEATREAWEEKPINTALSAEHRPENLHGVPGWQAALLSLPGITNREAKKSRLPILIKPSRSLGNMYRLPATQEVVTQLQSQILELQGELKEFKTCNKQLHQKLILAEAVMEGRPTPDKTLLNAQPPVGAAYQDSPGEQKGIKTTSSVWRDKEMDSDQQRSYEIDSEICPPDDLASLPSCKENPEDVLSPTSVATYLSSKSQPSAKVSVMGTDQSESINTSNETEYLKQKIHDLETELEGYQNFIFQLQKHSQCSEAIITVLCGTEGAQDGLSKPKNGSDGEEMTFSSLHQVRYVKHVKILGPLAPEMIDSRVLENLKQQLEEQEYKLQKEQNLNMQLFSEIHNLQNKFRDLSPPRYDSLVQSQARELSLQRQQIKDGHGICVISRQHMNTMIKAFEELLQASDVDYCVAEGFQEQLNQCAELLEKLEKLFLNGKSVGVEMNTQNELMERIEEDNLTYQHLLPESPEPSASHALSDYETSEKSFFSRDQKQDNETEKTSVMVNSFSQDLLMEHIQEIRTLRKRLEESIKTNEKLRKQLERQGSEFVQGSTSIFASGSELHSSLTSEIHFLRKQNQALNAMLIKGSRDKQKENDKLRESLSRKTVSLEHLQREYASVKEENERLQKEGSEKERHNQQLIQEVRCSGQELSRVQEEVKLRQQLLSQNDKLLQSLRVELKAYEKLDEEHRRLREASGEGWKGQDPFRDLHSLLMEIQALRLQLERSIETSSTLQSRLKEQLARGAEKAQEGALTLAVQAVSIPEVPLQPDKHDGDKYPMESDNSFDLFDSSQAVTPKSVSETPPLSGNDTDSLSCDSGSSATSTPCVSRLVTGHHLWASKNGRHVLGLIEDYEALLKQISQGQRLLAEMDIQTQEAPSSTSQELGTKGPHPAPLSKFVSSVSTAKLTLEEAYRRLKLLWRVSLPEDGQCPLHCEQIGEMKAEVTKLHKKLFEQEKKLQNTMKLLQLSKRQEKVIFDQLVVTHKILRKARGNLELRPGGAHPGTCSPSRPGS

Substance: AKAP450, Q99996 1-3907
- percent of total AKAP450 co-immunoprecipitated by CDK5RAP2 antibody: 40%
